# Measured values as given in article PMC6056610.
# Legend:
# [1] = molecular target: 16055 NFL I559P (HIV-1 16055 (clade C)); assay: SEC; Superdex 200 16/60 or 10/300 GL after lectin-affinity chromatography; also after negative selection or rEK cleavage where told
# [2] = molecular target: 16055 NFL L555P (HIV-1 16055 (clade C)); assay: as above
# [3] = molecular target: 16055 NFL L555P (HIV-1 16055 (clade C)); assay: negative stain electron microscopy; 2D class averages (RELION) of purified trimers, ~0.01 mg/mL, 0.7% uranyl formate
# [4] = molecular target: 16055 NFL N554P (HIV-1 16055 (clade C)); assay: SEC; Superdex 200 16/60 or 10/300 GL after lectin-affinity chromatography; also after negative selection or rEK cleavage where told
# [5] = molecular target: 16055 NFL Q562P (HIV-1 16055 (clade C)); assay: as above
# [6] = molecular target: 16055 NFL Q562P (HIV-1 16055 (clade C)); assay: negative stain electron microscopy; 2D class averages (RELION) of purified trimers, ~0.01 mg/mL, 0.7% uranyl formate
# [7] = molecular target: 16055 NFL Q563P (HIV-1 16055 (clade C)); assay: SEC; Superdex 200 16/60 or 10/300 GL after lectin-affinity chromatography; also after negative selection or rEK cleavage where told
# [8] = molecular target: 16055 NFL Q563P (HIV-1 16055 (clade C)); assay: negative stain electron microscopy; 2D class averages (RELION) of purified trimers, ~0.01 mg/mL, 0.7% uranyl formate
# [9] = molecular target: 16055 NFL S553P (HIV-1 16055 (clade C)); assay: SEC; Superdex 200 16/60 or 10/300 GL after lectin-affinity chromatography; also after negative selection or rEK cleavage where told
# [10] = molecular target: BG505 NFL I559P (HIV-1 BG505 (clade A)); assay: as above
# [11] = molecular target: BG505 NFL L555P (HIV-1 BG505 (clade A)); assay: as above
# [12] = molecular target: BG505 NFL L555P (HIV-1 BG505 (clade A)); assay: negative stain electron microscopy; 2D class averages (RELION) of purified trimers, ~0.01 mg/mL, 0.7% uranyl formate
# [13] = molecular target: BG505 NFL N554P (HIV-1 BG505 (clade A)); assay: SEC; Superdex 200 16/60 or 10/300 GL after lectin-affinity chromatography; also after negative selection or rEK cleavage where told
# [14] = molecular target: BG505 NFL Q562P (HIV-1 BG505 (clade A)); assay: as above
# [15] = molecular target: BG505 NFL Q563P (HIV-1 BG505 (clade A)); assay: as above
# [16] = molecular target: BG505 NFL S553P (HIV-1 BG505 (clade A)); assay: as above
substance,measurement,setting,value
16055 NFL I559P (domain or fragment),stoichiometry N,[1],3
16055 NFL L555P (domain or fragment),stoichiometry N,[2],3
same,stoichiometry N,[3],3
16055 NFL N554P (domain or fragment),stoichiometry N,[4],3
16055 NFL Q562P (domain or fragment),stoichiometry N,[5],3
same,stoichiometry N,[6],3
16055 NFL Q563P (domain or fragment),stoichiometry N,[7],3
same,stoichiometry N,[8],3
16055 NFL S553P (domain or fragment),stoichiometry N,[9],3
BG505 NFL I559P (domain or fragment),stoichiometry N,[10],3
BG505 NFL L555P (domain or fragment),stoichiometry N,[11],3
same,stoichiometry N,[12],3
BG505 NFL N554P (domain or fragment),stoichiometry N,[13],3
BG505 NFL Q562P (domain or fragment),stoichiometry N,[14],3
BG505 NFL Q563P (domain or fragment),stoichiometry N,[15],3
BG505 NFL S553P (domain or fragment),stoichiometry N,[16],3
